Assays:
[1] = molecular target: Gloeobacter kilaueensis JS1 Orange Carotenoid Protein clade X (GlOCPX), wild type (Gloeobacter kilaueensis JS1); experiment: SEC
[2] = molecular target: Gloeobacter kilaueensis JS1 Orange Carotenoid Protein clade X (GlOCPX), wild type (Gloeobacter kilaueensis JS1); experiment: SEC-MALS
[3] = molecular target: GlOCPX E25C mutant (Gloeobacter kilaueensis JS1); experiment: SEC

dimer/monomer ratio [1] [%]	stoichiometry N [2]	dimer/monomer ratio [3] [%]	Substance
5	2		Gloeobacter kilaueensis JS1 Orange Carotenoid Protein clade X (GlOCPX), wild type (natural protein)
		25	GlOCPX E25C mutant (natural protein)

Reference: paper doi:10.1101/2022.06.14.496144
